Assays:
α9β1 integrin [1] = target: α9β1 integrin (UniProt Q13797); assay: inhibition of α9+ cell adhesion to immobilized Fraction 9-4
α9β1 integrin [2] = target: α9β1 integrin (UniProt Q13797); assay: inhibition of α9+ cell adhesion to immobilized VCAM-1
α9β1 integrin [3] = target: α9β1 integrin (UniProt Q13797); assay: inhibition of α9LN18 cell adhesion to immobilized F9 fraction
α9β1 integrin [4] = target: α9β1 integrin (UniProt Q13797); assay: inhibition of α9LN18 cell adhesion to immobilized recombinant VCAM-1

Chain of UniProt Q13797 (Q13797 30-1035, chain 1 of 2): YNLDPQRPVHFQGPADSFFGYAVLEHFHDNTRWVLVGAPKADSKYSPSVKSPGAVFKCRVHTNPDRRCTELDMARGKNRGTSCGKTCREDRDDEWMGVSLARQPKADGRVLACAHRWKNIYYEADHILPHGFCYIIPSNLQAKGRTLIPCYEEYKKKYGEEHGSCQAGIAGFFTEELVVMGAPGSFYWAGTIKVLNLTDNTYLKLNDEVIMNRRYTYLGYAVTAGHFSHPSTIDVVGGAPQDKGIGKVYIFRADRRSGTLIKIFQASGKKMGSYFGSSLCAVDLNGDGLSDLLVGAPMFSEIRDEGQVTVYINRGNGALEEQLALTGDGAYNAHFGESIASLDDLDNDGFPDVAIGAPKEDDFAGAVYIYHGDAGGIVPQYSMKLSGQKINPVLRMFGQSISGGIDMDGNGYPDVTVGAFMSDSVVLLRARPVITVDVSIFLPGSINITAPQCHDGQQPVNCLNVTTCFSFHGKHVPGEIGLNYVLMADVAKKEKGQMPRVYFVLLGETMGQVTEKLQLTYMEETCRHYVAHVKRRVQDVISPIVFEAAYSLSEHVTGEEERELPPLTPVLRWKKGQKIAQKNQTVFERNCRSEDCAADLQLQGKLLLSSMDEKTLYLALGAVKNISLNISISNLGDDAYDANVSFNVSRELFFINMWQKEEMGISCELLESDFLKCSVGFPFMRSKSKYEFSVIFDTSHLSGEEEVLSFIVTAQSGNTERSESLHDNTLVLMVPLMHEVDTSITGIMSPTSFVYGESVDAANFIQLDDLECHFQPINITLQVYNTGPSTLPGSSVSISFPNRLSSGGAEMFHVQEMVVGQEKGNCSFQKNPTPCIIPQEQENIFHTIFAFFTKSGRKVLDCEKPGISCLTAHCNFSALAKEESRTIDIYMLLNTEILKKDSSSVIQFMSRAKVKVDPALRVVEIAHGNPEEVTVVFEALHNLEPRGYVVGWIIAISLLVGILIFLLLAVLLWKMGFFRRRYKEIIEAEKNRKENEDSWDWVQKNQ
Chain of UniProt Q13797 (P05556 21-798, chain 2 of 2, further chain): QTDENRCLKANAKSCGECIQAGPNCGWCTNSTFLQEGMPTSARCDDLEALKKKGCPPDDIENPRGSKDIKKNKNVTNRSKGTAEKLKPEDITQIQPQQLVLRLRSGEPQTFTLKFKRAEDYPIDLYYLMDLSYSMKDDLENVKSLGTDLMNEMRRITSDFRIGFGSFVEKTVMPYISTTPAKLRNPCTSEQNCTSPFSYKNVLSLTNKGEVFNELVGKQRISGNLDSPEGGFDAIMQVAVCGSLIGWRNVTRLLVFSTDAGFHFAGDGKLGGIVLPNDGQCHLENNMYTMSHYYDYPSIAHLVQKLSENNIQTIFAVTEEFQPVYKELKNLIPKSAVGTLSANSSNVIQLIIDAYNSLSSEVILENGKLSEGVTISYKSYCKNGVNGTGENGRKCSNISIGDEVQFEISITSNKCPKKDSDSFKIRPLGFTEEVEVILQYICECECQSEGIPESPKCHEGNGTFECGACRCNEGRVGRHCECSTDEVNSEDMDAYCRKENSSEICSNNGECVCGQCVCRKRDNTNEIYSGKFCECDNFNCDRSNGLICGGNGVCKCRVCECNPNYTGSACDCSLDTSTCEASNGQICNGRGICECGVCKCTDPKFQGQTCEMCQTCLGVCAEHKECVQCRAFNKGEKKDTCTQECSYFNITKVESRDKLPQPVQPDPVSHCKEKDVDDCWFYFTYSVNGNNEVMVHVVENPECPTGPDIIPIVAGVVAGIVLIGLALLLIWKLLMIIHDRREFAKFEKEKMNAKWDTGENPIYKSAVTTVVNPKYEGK
Chain of VLO5, snake venom MLD-disintegrin (P0C6A9 whole entry): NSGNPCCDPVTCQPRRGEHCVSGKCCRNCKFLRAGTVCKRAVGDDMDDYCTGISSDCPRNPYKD
Chain of VLO5, snake venom MLD-disintegrin (P0C6B0 whole entry, further chain): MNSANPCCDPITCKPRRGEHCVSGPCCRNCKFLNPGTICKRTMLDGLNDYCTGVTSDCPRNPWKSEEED

Substance	IC50 (α9β1 integrin [1])	IC50 (α9β1 integrin [2])	concentration giving complete inhibition of cell adhesion (α9β1 integrin [3])	concentration giving complete inhibition of cell adhesion (α9β1 integrin [4])
VLO5, snake venom MLD-disintegrin	5.6 nM	3.2 nM	–	–
CS-1 peptide EILDVPST	–	–	500 µM	500 µM

From patent publication US20250295731A1
